The record followed here is the nanobody polyreactivity screen of Harvey et al. (2022).

A short description of the data set: yeast display, Sf9 membrane polyspecificity reagent, FACS + sequencing; frameworks hold sequencing errors. Put shortly:
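Polyreactivity labels are assigned by the sorting gate from which each nanobody was recovered. The gates were low and high (top ~1%), set on anti-HA fluorescence for expression and streptavidin fluorescence for reagent binding. Before sorting, galactose-induced (36–48 hours) yeast display cells were stained for 1 hour at 4 °C with 10% biotinylated, detergent-solubilized Sf9 membrane reagent.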
Turning to “QVKLVDSAGGLVQAGVILRLRCAASGSIVRPNAMGWYSQATGKERELVAAITSSGTTNYADSVKVRFTISRDNAKNTVYLQMNSLKPEDTAVYYCAAERKDGGYGYGVWDYYPGENMDYWGQGTQVTVSS”, the “polyreactivity (PSR sort gate)” value is “low polyreactivity”.

For the sequence “QVKLVDSGGGLVQAGGSVGLSCAASGRIFPWYTMGWYRQAPGKERELVAVISSGGRTHYADSVKGRFTISRDNAKNTVYLQMYSLNPEDTAVYDCAAESRYQRYDYWGQGTQVTVSS”, the “polyreactivity (PSR sort gate)” value is reported as “high polyreactivity”. For “QVKLVESAGGLVQAGCSLRLSCAASGSIFLKNAKGWYRQSPGKERELVAGITTRGSTYYADSVKGRFTISRDNAKNTVYLQMNSLKPEDTAVYYCAKRDVGYQTRYFYWGQGTQVTVSS” the value was “high polyreactivity”; for “QVKLVESGGGLDQAGGSLRLSCAAYGSIFGDYVMGWYRQAPGKEMEFVAAISGSGGSTYYADSVKWRFTISRVNAKNTVYLQMNCLKPEDTAVYYCSTSGPQYYSRNLDYWGQGTQVTVSS”, “low polyreactivity”; for “QVKLVESGGGLFQAGGSLRLSCADSGRTFYYYGMPWYIQETGKERELVAAINRGDSTKYADSVKGRFTISLDNAKNNVYLHMNSLKPEDTAVYYCNARLRCSFARFIYEYWRQGTQVTVSS”, “low polyreactivity”. For “QVKLVESGGGLVHAGGSLRLICAASGFTFGEYAMVWSRQSPGKERELVAGISWSGGGTYYADSVKGRFTISRDNAKYTVYLQMNSLKPEDTAVYYCAAVLPSTSYKYDYWGQGTQVTVSS”, the “polyreactivity (PSR sort gate)” value was “low polyreactivity”. Next, “QVKLVESGGGLVQAGCRLRLSCAASGFICGYNAMGWYRQAPGKERELVAAIDWSGTSTYYADSVKWRFTISRDNAKNTVYLQMNSLKPEDSAVYYCAADTSTWDHTRGYDYWGQGTQVTVSS”: “high polyreactivity”. Next, “QVKLVESGGGLVQAGGRLRLTCAASGSTISGYAMGWYRQAPGKERQLVATITGGGRTYYADSVKGRFTISRDNAKNTVYLQMNSLKPEDSAVYYFAVRGYHQYKYGYWGQGTQVTVSS”: “high polyreactivity”; “QVKLVESGGGLVQAGGSIRLSCAASGSIFWYYAMGWYRQAPGKERELVATITSGGSTSYADSVKGRFTISRDNAKNTVYLQMKSLKPEDTAVYYCAAARLFTTYDWGQGTQVTVSS”: “low polyreactivity”; “QVKLVESGGGLVQAGGSLRISCAASGLTFPKYAMGWYRQAPGKERELVAAITQRGGSTYYADSVKVRFTISRDNAKNTVYLEMYWLKREDTAVYYCNARRRDYNNRREFDYWGQGSQVTVSS”: “high polyreactivity”. Turning to “QVKLVESGGGLVQAGGSLRLICAASGRIFVPYAMGWNRQAPWKETELFAAISRSGGSTYYADSVKGRFTISRDNAKNTVYLQMNSLKTEETAVYYCAVYYRRYKEYGYNYWGQGTEVTVSS”, the “polyreactivity (PSR sort gate)” value is “high polyreactivity”. Take “QVKLVESGGGLVQAGGSLRLSCAASARIFAQYDMGWYRQEPGKEREFVAAISGGGSSKYYADSVKGRFTISRDNAKNTGYLQMNSLKPEDTAVYYCAAYGRYPSWYAPGNEYWGQGTQVTVSS”: the “polyreactivity (PSR sort gate)” value is “low polyreactivity”. For the sequence “QVKLVESGGGLVQAGGSLRLSCAASGFIFRGYAMGWYRQAPGKERELVAAINYSGGSTYYADSVKGRFTISRDYAKNTVYLQMNSAKPEYTAVYYCNALGLRYYEYDYWGQGTQVNVSS”, the “polyreactivity (PSR sort gate)” value is recorded as “low polyreactivity”. Consider “QVKLVESGGGLVQAGGSLRLSCAASGFIFSKNAMGWYRQAPGKERELVAAISGRGGTTYYADSVKGRFTISRDNAKNTVYLQMNSLIPEDTAVYYCATDNSSHPYDYWGQGTQVTVSS”, for which the “polyreactivity (PSR sort gate)” value was “high polyreactivity”. For the sequence “QVKLVESGGGLVQAGGSLRLSCAASGFTFDKYAMGWSRPEPGKERELVATISRRGGSTYYADSVKGRFTISRDNAKNTVYLQMNSLKPEDTAVYYCAKVRYYYSPYREFDYCGQGTQVTVSS”, the “polyreactivity (PSR sort gate)” value is on record as “high polyreactivity”. Take “QVKLVESGGGLVQAGGSLRLSCAASGRIFNWYAMGWYRQAPGKERELVARISSGDITSYADSVKGRFTISRDNAKNTVYLQMNSLKPEDTALYYCNDDGFFLNVSPYDYWGQGTQVTVSS”: the “polyreactivity (PSR sort gate)” value is on record as “low polyreactivity”. For “QVKLVESGGGLVQAGGSLRLSCAASGRILGYYAMGWYRPAPGKERELVAAINRGGRTYYADSVKGRFTISRDNAKNTVYLEMYSLKPEDTAVYYCAAVLYNQWALVYWFGYNYWGQGTQVSVSS” the value was “high polyreactivity”; for “QVKLVESGGGLVQAGGSLRLSCAASGSIFSMYTMGWYRQAPGKARELVAAIDRSGGSTYYADSVKGRFTISRDNAKNTVYLQMNSLKPEDTAVYYCATDSVYIYDPYWSSIIEYDYWGQGTQVTVSS”, “low polyreactivity”. On to “QVKLVESGGGLVQAGGSLRLSCAASGSISLYYAMGWYRQAPGKERELVAAISDSGGDTYYADSVKGRFTISRDNAKITVYLQMNSLKPADTAVYYCATDTAYWLWVYALLEYWGQGTQVTVSS”, for which the “polyreactivity (PSR sort gate)” value was “low polyreactivity”. For the sequence “QVKLVESGGGLVQAGGSLRLSCAASGSTFAGTAMGWYRQAPGKEREMVAAISWNTGSTYADSVKGRFTISRDNAKNTVYLQMNSLKPEDTAVYYCAADRSHAYYRKNRVDYWGQGTQVTVSS”, the “polyreactivity (PSR sort gate)” value is listed as “low polyreactivity”. Turning to “QVKLVESGGGLVQAGGSLRLSCAASGSTFPRYAMGWYRQAPGKEREFVAVIWSGGSTYYADSVKGRFTISRDNAKNTVYFQMNSLIPEDTAVYYCAAEYHTLSKYSGYATHDYWGQGTQVTVSS”, the “polyreactivity (PSR sort gate)” value is “low polyreactivity”. Take “QVKLVESGGGLVQAGGSLRLSCAASGSTFYAYVMGWYRQAPGKARELVAAISKGGGSTYYADSVKGRFTISRDNAKNTVYLQMNSLKPEDTAVYYSAAYASYSNYRKYNYWGQGTQVTVSS”: the “polyreactivity (PSR sort gate)” value is “high polyreactivity”. As for “QVKLVESGGGLVQAGGSLRLSCAASGSTFYHNAIGWYRQAPGKERELVARITRGGSTDYADSVKGRFTISRDNAKNTVYLQMNSLKPEDTEVYYCAADIGHFERFYWGQGTQVTVSS”, the “polyreactivity (PSR sort gate)” value is listed as “low polyreactivity”. For “QVKLVESGGGLVQAGGSLRLSCAASGSTSRDNAMGWYRQAPGKERELVGAITVIDGTTYYADSVKGRFTISRDNAKNTVYLQMNSLKPEDTAVYYCAADTIWYEYYYWGQGTQVTLSS” the value was “low polyreactivity”; for “QVKLVESGGGLVQAGGSLRLSCAASGSTYWQYSMGWYRHAPGKEREFVAAISSRGGSTYYADSVKGRFTISRDNAKNTVYLQMNSLKPEDTAVYYFAAKNYFAFIRTYRYVHRPTYYYWGQGTQVTVSS”, “high polyreactivity”.

For the sequence “QVKLVESGGGLVQAGGSLRLSCADSGSIFYNNAMGWYRQAPGKERELVATIRRSGGSTYYADSVKGRFTISRDNAKNTVYLQMISLKPEDTAVDYCNAPPYLALVLIDYDYWGQGTQVTVSS”, the “polyreactivity (PSR sort gate)” value is recorded as “low polyreactivity”.

Consider “QVKLVESGGGLVQAGGSLRLSSAASGSTFDSNAMGWYRQEPGKERELVAAITRGGSTNYADSVKGRFTISRDNAKNTVYLQMNSLKPEDTAVYYCAAASETLGYATYGSGYDYWGQGTQVTVSS”, for which the “polyreactivity (PSR sort gate)” value is “low polyreactivity”.

Turning to “QVKLVESGGGLVQAGGSLRLTCAASGRTFARYAMGWSRQEPGKERELVAAISRRGTSTYYADSVKGRFTISRDNAKNTVYLQMNSLKPEDTAVYYCAVDPYLGHYDYWGQGTQVTVSS”, the “polyreactivity (PSR sort gate)” value is “high polyreactivity”. As to “QVKLVESGGGLVQSGGSLRLSCAASGSILDVNAMGWYRQAPGKERELVAAISDSGGSTYYADSVKGRFTISRDNAKNTVYLQMNSLKPEDTAVYYCATAYYYHGGYYYPYDDYWGQGTQVTVSS”, the “polyreactivity (PSR sort gate)” value is “low polyreactivity”. Next, “QVKLVESGGRLVQAGGSLRLSCAASGFTNYAMGWNRQAPGKERELVAAITLSDASTYYADSVKGRFTISRDNAKNTVYLQMNSLKPEDTAVDYCAAKGGRSKSGARALGYWGQGTHVTVSS”: “low polyreactivity”.
